Consider one substance from publication PMC7619190.

The target in test [1] is human SRC SH2 domain (Gln147-Lys252) C188A (human) (UniProt P12931). Put plainly: ITC; peptide (400 uM) titrated into SRC SH2 (40 uM) in the cell, 25 C, MicroCal PEAQ-ITC Automated; SH2 domain pretreated with 0.1 mM PV (oxidised). On the technique in general: Isothermal titration calorimetry measures the heat released or taken up as one component is titrated into another.
Test [2] shares this target. In words: ITC; peptide (400 uM) titrated into SRC SH2 (40 uM) in the cell, 25 C, MicroCal PEAQ-ITC Automated; SH2 domain pretreated with 1 mM TCEP (reducing conditions).

In the case of “SRC C-terminal phosphopeptide (spanning pY530)”, in test [1], the fold lower affinity against reducing conditions amounted to 3.5 fold. Further, the fold increase in affinity against SH2 WT in test [2] amounted to 5 fold.
